A value given as a limit tells only on which side of the number the result lay.

T1: GST-fused recombinant ARHGAP25 (human, UniProt P42331 1-645)
T1 construct: also called GST-ARHGAP25; GST-tagged recombinant ARHGAP25
T1 sequence (looked up): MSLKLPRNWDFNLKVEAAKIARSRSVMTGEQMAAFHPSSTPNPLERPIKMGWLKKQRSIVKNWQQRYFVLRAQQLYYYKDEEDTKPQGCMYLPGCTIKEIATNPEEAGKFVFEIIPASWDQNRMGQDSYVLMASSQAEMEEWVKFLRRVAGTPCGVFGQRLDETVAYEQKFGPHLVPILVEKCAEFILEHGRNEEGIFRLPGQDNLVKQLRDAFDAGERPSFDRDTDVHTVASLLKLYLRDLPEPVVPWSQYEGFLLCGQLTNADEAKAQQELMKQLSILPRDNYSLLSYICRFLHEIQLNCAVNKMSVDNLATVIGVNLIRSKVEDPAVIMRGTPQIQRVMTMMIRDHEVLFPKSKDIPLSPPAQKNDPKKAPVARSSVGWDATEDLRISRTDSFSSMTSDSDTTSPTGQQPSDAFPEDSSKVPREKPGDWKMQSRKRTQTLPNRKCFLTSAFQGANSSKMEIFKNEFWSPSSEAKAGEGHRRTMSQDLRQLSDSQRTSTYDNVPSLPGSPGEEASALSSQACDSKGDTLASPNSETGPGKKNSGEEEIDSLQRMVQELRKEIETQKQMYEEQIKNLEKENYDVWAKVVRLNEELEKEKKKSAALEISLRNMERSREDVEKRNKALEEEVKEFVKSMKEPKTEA

B1: RAB27A (natural protein, UniProt P51159 1-221, looked up)
chain: MSDGDYDYLIKFLALGDSGVGKTSVLYQYTDGKFNSKFITTVGIDFREKRVVYRASGPDGATGRGQRIHLQLWDTAGQERFRSLTTAFFRDAMGFLLLFDLTNEQSFLNVRNWISQLQMHAYCENPDIVLCGNKSDLEDQRVVKEEEAIALAEKYGIPYFETSAANGTNISQAIEMLLDLIMKRMERCVDKSWIPEGVVRSNGHASTDQLSEEKEKGACGC
notes: RAB27A, small GTPase, endogenous in human neutrophilic granulocytes; In some pull-downs the lysate was loaded with GTPγS or GDPβS beforehand; source: endogenous, human neutrophilic granulocyte lysate
B2: ARF4 (natural protein, UniProt P18085 1-180, looked up)
chain: MGLTISSLFSRLFGKKQMRILMVGLDAAGKTTILYKLKLGEIVTTIPTIGFNVETVEYKNICFTVWDVGGQDRIRPLWKHYFQNTQGLIFVVDSNDRERIQEVADELQKMLLVDELRDAVLLLFANKQDLPNAMAISEMTDKLGLQSLRNRTWYVQATCATQGTGLYEGLDWLSNELSKR
notes: ARF4, small GTPase, endogenous in human neutrophilic granulocytes; In some pull-downs the lysate was loaded with GTPγS or GDPβS beforehand; source: endogenous, human neutrophilic granulocyte lysate
B3: RHOG (natural protein)
chain: not shown
notes: RHOG, small GTPase of the Rac subfamily, endogenous in human neutrophilic granulocytes; In some pull-downs the lysate was loaded with GTPγS or GDPβS beforehand; source: endogenous, human neutrophilic granulocyte lysate

This assay has as its target T1, GST-fused recombinant ARHGAP25. Description: affinity purification with mass spectrometry; GST-ARHGAP25 on glutathione agarose beads incubated with neutrophil lysate loaded beforehand with GTPγS or GDPβS (15 mM EDTA, 15 min, RT; stopped with 60 mM MgCl2), 45 min, 4 °C; LFQ values of the two loadings compared. The conditions noted are these: one partner purified.
With B1, the “log2ΔFC of LFQ values, GTPγS-loaded against GDPβS-loaded lysate” value is below 0.2. Consider B2, for which the “log2ΔFC of LFQ values, GTPγS-loaded against GDPβS-loaded lysate” value was below 0.2. The value for B3 was 0.589.

Values taken from paper PMC11362597, “Neutrophil-specific interactome of ARHGAP25 reveals novel partners and regulatory insights” (Scientific Reports, 2024).
